Results taken from the supplement of paper PMC10567573.

B1: CDC14A (parent)
chain: LWVQGDIFRSKLKNRPSSEGSINK

Variants of: B1
Experiment: protein stability index of a GFP-peptide fusion (GPS, HEK-293T) (PSI 1-6); higher = more stable
Settings: c terminus: a fixed tail appended
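Further: lentivirally expressed fusions sorted by FACS into six bins by GFP to DsRed ratio, PSI derived from sequencing read proportions per bin multiplied by bin number.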

Protein stability index: each site, then its substitutions
I22: Y 2.85; P 2.63; C 2.59; K 2.06; F 2.51; N 3.05; H 3.32; R 3.2; S 3.88; M 3.02; G 3.21; W 2.33; E 2.97; V 2.81; T 3.39; A 3.1; Q 2.71; L 2.79; D 3.2
G20: S 2.58; H 2.74; I 2.61; N 2.76; E 3.9; V 2.23; L 2.69; C 2.82; D 2.64; W 2.03; A 2.06; P 2.04; T 2.85; R 2.76; M 2.73; K 3.44; Q 2.61; F 2.3
S21: K 2.42; W 2.42; D 4.21; F 2.46; N 2.18; R 1.73; Q 3.15; A 2.77; G 2.84; T 3.13; L 2.24; M 2.15; E 3.65; V 2.41; H 2.41; C 2.64; I 2.08; P 3.06; Y 2.22
P16: M 2.17; G 2.02; W 1.74; V 1.64; S 2.52; D 2.89; E 3.38; K 2.68; Y 1.91; L 1.57; H 2.52; T 2.6; R 2.7; N 2.51; I 2.36; C 1.92; F 2.49; Q 2.5; A 2.8
E19: A 2.33; S 2.29; Q 2.49; R 2.35; M 2.02; F 1.7; I 2.24; H 2.36; G 2.24; T 1.88; K 2.21; P 1.95; Y 1.58; C 2.44; D 2.88; N 2.48; W 1.88; V 2.17; L 1.97
S18: L 3.55; A 2.58; R 2.42; Y 2.01; M 1.8; H 3.27; K 2.59; I 1.84; T 2.45; P 1.91; F 2.37; D 3.11; G 4.75; C 3.17; N 2.54; E 3.11; V 2.25; W 1.46; Q 2.39
S17: V 2.47; M 1.83; K 2.45; F 1.66; I 2.08; Y 2.08; D 2.85; Q 2.05; N 3.48; H 2.77; E 2.43; G 2.87; C 2.89; P 2.41; T 2.82; L 2.63; W 2.17; A 3.12
N23: G 3.05; H 2.65; I 2.15; C 2.17; L 2.1; F 1.45; A 2.08; E 2.89; K 2.69; D 2.8
N14: Y 2.53; Q 2.36; W 2.15; P 2.45; T 1.88; R 1.91; S 1.99
R15: L 2.92; D 2.61; T 3.26; W 2.25; P 2.81; H 2.62; Y 3.17; F 2.39; I 2.52; M 2.07; C 2.54; V 2.78; K 3; Q 3.09; E 3.02; N 2.57; A 2.81; S 2.66; G 2.91
